Test [1] concerns the target IAPP-CFP (human IAPP fused in frame with cyan fluorescent protein) (human). In words: FRET or BRET; acceptor photobleaching FRET (AB FRET) by confocal microscopy (Leica TCS SP5) of yeast cells co-expressing a CFP fusion (donor) and a YFP fusion (acceptor); acceptor bleached at 514 nm, 100% intensity; cells washed, air-dried on polylysine slides and mounted in …; three independent transformants, at least 100 cells each.

Test [2] has as its target Aβ42-CFP (human Aβ(1-42) fused to CFP) (human) (UniProt P05067). The test is described as above.

IAPP-CFP (human IAPP fused in frame with cyan fluorescent protein) (human), sequence (P10997 8-37): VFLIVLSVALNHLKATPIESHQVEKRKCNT

Turning to “IAPP-YFP (human IAPP fused in frame with yellow fluorescent protein) (domain or fragment)”, the FRET efficiency in test [1] came out at 31%; in test [2], 20%.

For the origin of these results see publication PMC10531723.
